Test results as given in article PMC8809517, “Cofactor-independent RNA editing by a synthetic S-type PPR protein”.
Numbering of substitutions follows the chain as printed.

Legend:
Assay in all cases: high-throughput RNA pulldown from lysate on Ni-NTA beads; HRP: 50 mM Tris pH 8, 150 mM NaCl, 1 mM beta-mercaptoethanol, 50 ug/ml BSA, 3 ug/ml yeast RNA, 0.5% heparin; ITC and FP: Tris pH 8, 200 mM KCl, 5% glycerol; MST: 50 mM Tris pH 8, 200 mM NaCl, 1 mM DTT, BSA, heparin, 0.05% Tween 20
Conditions in all cases: tags: N-terminal His-eGFP
[1] = molecular target: T1, GFP-9S library array, motif 4 ND N98I;D124L (synthetic construct, N98I;D124L)
T1 chain: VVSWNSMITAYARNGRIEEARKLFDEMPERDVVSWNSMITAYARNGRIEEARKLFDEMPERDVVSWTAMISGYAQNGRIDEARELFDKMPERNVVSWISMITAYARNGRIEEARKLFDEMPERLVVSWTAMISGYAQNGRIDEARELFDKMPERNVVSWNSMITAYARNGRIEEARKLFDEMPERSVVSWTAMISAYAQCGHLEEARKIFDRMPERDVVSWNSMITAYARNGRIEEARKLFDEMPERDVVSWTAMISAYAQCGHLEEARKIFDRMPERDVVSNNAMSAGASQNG

[2] = molecular target: T2, GFP-9S library array, motif 4 ND N98S;D124I (synthetic construct, N98S;D124I)
T2 chain: T1 chain with I98S, L124I

[3] = molecular target: T3, GFP-9S library array, motif 4 ND N98L (synthetic construct, N98L)
T3 chain: T1 chain with I98L, L124D

[4] = molecular target: T4, GFP-9S library array, motif 4 ND N98K;D124Y (synthetic construct, N98K;D124Y)
T4 chain: T1 chain with I98K, L124Y

[5] = molecular target: T5, GFP-9S library array, motif 4 ND N98K;D124S (synthetic construct, N98K;D124S)
T5 chain: T1 chain with I98K, L124S

AUUACACGUGA (ssRNA) [Cy5-rpoA]
Kd ([1]; label: 5' Cy5): 106 nM
Kd ([2]; label: 5' Cy5): 74.7 nM
Kd ([3]; label: 5' Cy5): 214 nM
Kd ([4]; label: 5' Cy5): 62.5 nM
Kd ([5]; label: 5' Cy5): 67.8 nM

AUUAAACGUGA (ssRNA) [IR-rpoA-A]
Kd ([1]; label: 5' IRDye 800CW): 343 nM
Kd ([2]; label: 5' IRDye 800CW): 113 nM
Kd ([3]; label: 5' IRDye 800CW): 452 nM
Kd ([4]; label: 5' IRDye 800CW): 115 nM
Kd ([5]; label: 5' IRDye 800CW): 120 nM

AUUAUACGUGA (ssRNA) [IR-rpoA-U]
Kd ([1]; label: 5' IRDye 800CW): 202 nM
Kd ([2]; label: 5' IRDye 800CW): 152 nM
Kd ([3]; label: 5' IRDye 800CW): 66.3 nM
Kd ([4]; label: 5' IRDye 800CW): 128 nM
Kd ([5]; label: 5' IRDye 800CW): 40.8 nM

AUUAGACGUGA (ssRNA) [Cy5-rpoA-G]
Kd ([1]; label: 5' Cy5): 128 nM
Kd ([2]; label: 5' Cy5): 71.4 nM
Kd ([3]; label: 5' Cy5): 183 nM
Kd ([4]; label: 5' Cy5): 49.3 nM
Kd ([5]; label: 5' Cy5): 89.3 nM
